From paper PMC10540216, “Activity Guided Azide-methyllysine Photo-trapping for Substrate Profiling of Lysine Demethylases” (Journal of the American Chemical Society, 2023)
Where no end group is shown, it is not given here.

Target: T1, CBX1 chromodomain
T1 construct: Chromodomain of Chromobox protein 1 (CBX1); Expression, purification and construct limits are in the Supporting Information; also called Chromobox protein 1
Assay: ITC; CBX1 chromodomain and eIF4A3 K374me0/1/2/3 peptides
Settings: both partners purified

Kd	Binder
95.2 ± 1.4 µM	GRSGRYGRKGVAINFVK (also: dimethyllysine at K374) [eIF4A3-K374me2 peptide 23]
23.2 ± 2 µM	GRSGRYGRKGVAINFVK (also: trimethyllysine at K374) [eIF4A3-K374me3 peptide 13]
